Reference: the RNAGym collection of RNA variant scans (doi:10.7554/elife.80360)

B1: Hairpin Ribozyme (parent)
chain: GUCCUCUUUCACGUGCGCGUGAAAGAGAGAAGUGAACCAGAGAAACACACGUUGUGGUAUAUUACCUGGUA

Variants of: B1
Experiment: self-cleavage, relative activity (ratio to wild type); higher = more cleavage; co-transcriptional

Q: Which self-cleavage does the source give for U14G G34C here?
A: 1.52

Q: Which self-cleavage does the source give for U14G G40C here?
A: 0.111

Q: For U14G C37G, which self-cleavage is on record?
A: 0.276

Q: Which self-cleavage does the source give for U14G C37A here?
A: 0.276

Q: For G15A A41U, which self-cleavage is on record?
A: 1.26

Q: With G15A C66U as the variant, how does the self-cleavage read?
A: 0.35

Q: With U14C U60C as the variant, how does the self-cleavage read?
A: 1.13

Q: Which self-cleavage does the source give for G15C C46U here?
A: 0.151

Q: For G15C A35G, which self-cleavage is on record?
A: 1.08

Q: For G13U G15U, which self-cleavage is on record?
A: 0.941

Q: With G15C A26C as the variant, how does the self-cleavage read?
A: 0.834

Q: Which self-cleavage does the source give for G15C A31C here?
A: 0.206

Q: For G15U A30U, which self-cleavage is on record?
A: 0.146

Q: Which self-cleavage does the source give for G15A G68U here?
A: 0.232

Q: Which self-cleavage does the source give for U14A U55A here?
A: 0.201

Q: Which self-cleavage does the source give for U14A U55C here?
A: 0.206

Q: Which self-cleavage does the source give for G13U G19A here?
A: 0.73

Q: For G13U C48G, which self-cleavage is on record?
A: 0.106

Q: Which self-cleavage does the source give for U14G A64C here?
A: 0.27

Q: For U14C G29A, which self-cleavage is on record?
A: 0.0903

Q: For G15C A61G, which self-cleavage is on record?
A: 0.173

Q: With G15C A61U as the variant, how does the self-cleavage read?
A: 0.181

Q: For G15U A26C, which self-cleavage is on record?
A: 0.96

Q: Which self-cleavage does the source give for G15U A26U here?
A: 0.831

Q: With G13U G51C as the variant, how does the self-cleavage read?
A: 0.745

Q: For G13U G51U, which self-cleavage is on record?
A: 0.887

Q: Which self-cleavage does the source give for U14G U67A here?
A: 0.186

Q: For U14G U67C, which self-cleavage is on record?
A: 0.145

Q: For G13U U58C, which self-cleavage is on record?
A: 0.919

Q: For G13U U58A, which self-cleavage is on record?
A: 0.808

Q: With U14A C48G as the variant, how does the self-cleavage read?
A: 0.196

Q: With U14A C48A as the variant, how does the self-cleavage read?
A: 0.179

Q: For G15A A45G, which self-cleavage is on record?
A: 0.17

Q: Which self-cleavage does the source give for U14G A31C here?
A: 0.267

Q: For G15A A43U, which self-cleavage is on record?
A: 0.178

Q: For G15A A43G, which self-cleavage is on record?
A: 0.155

Q: With U14C U67C as the variant, how does the self-cleavage read?
A: 0.227

Q: With U14C G27A as the variant, how does the self-cleavage read?
A: 0.423

Q: Which self-cleavage does the source give for U14G U70G here?
A: 0.659

Q: For U14G U70C, which self-cleavage is on record?
A: 1.13

Q: Which self-cleavage does the source give for U14A G17U here?
A: 0.96

Q: For U14A G17A, which self-cleavage is on record?
A: 1.03

Q: With U14A A71C as the variant, how does the self-cleavage read?
A: 1.34

Q: For U14A A71U, which self-cleavage is on record?
A: 0.645

Q: With U14A C46U as the variant, how does the self-cleavage read?
A: 0.126

Q: For U14G C66A, which self-cleavage is on record?
A: 0.0772

Q: Which self-cleavage does the source give for G13U G27A here?
A: 0.347

Q: Which self-cleavage does the source give for G13U G27U here?
A: 0.215

Q: With U14G A23G as the variant, how does the self-cleavage read?
A: 0.703

Q: Which self-cleavage does the source give for U14C A39U here?
A: 0.387

Q: With U14C G25A as the variant, how does the self-cleavage read?
A: 0.734

Q: With U14C G25C as the variant, how does the self-cleavage read?
A: 0.728

Q: With G13U G54A as the variant, how does the self-cleavage read?
A: 0.518

Q: With U14A C66G as the variant, how does the self-cleavage read?
A: 0.143

Q: Which self-cleavage does the source give for U14C A61G here?
A: 0.133

Q: Which self-cleavage does the source give for U14C A61C here?
A: 0.162

Q: With G15C A47U as the variant, how does the self-cleavage read?
A: 0.142

Q: With G15A C18U as the variant, how does the self-cleavage read?
A: 1.05

Q: With G15C C37G as the variant, how does the self-cleavage read?
A: 0.298

Q: With U14G U53A as the variant, how does the self-cleavage read?
A: 0.835

Q: Which self-cleavage does the source give for U14G A36G here?
A: 1.11

Q: For G15C G68C, which self-cleavage is on record?
A: 0.165

Q: Which self-cleavage does the source give for U14G A43G here?
A: 0.0894

Q: Which self-cleavage does the source give for U14G A43U here?
A: 0.186

Q: Which self-cleavage does the source give for U14G A49U here?
A: 0.0246

Q: Which self-cleavage does the source give for G15A A30G here?
A: 0.187

Q: Which self-cleavage does the source give for G15A A23C here?
A: 0.877

Q: For G15A G56U, which self-cleavage is on record?
A: 0.134

Q: Which self-cleavage does the source give for G15A G42A here?
A: 0.15

Q: For G15C U33A, which self-cleavage is on record?
A: 0.0629

Q: Which self-cleavage does the source give for U14A A49G here?
A: 0.554

Q: With U14A A49C as the variant, how does the self-cleavage read?
A: 0.117

Q: With U14C U70G as the variant, how does the self-cleavage read?
A: 0.679

Q: Which self-cleavage does the source give for G15C A28C here?
A: 0.407

Q: With G15C A28G as the variant, how does the self-cleavage read?
A: 1.29

Q: Which self-cleavage does the source give for U14A A28C here?
A: 0.454

Q: For G15C G56U, which self-cleavage is on record?
A: 0.113

Q: For G15C G56C, which self-cleavage is on record?
A: 0.113

Q: With U14A A45G as the variant, how does the self-cleavage read?
A: 0.0459

Q: For U14G A47U, which self-cleavage is on record?
A: 0.105

Q: Which self-cleavage does the source give for G15A G17C here?
A: 0.83

Q: Which self-cleavage does the source give for U14A A47G here?
A: 0.153

Q: Which self-cleavage does the source give for U14A A23U here?
A: 0.701

Q: For G13U G69C, which self-cleavage is on record?
A: 0.198

Q: Which self-cleavage does the source give for G15U A39G here?
A: 0.245

Q: Which self-cleavage does the source give for G15A A28C here?
A: 0.586

Q: For G15A A28G, which self-cleavage is on record?
A: 0.978

Q: With U14A as the variant, how does the self-cleavage read?
A: 0.956

Q: With U14G as the variant, how does the self-cleavage read?
A: 0.813

Q: Which self-cleavage does the source give for U14C here?
A: 0.982

Q: Which self-cleavage does the source give for U14G A61G here?
A: 0.0735

Q: With U14G A61C as the variant, how does the self-cleavage read?
A: 0.257

Q: For U14G A61U, which self-cleavage is on record?
A: 0.2

Q: With G15A G29C as the variant, how does the self-cleavage read?
A: 0.106

Q: For U14G C18U, which self-cleavage is on record?
A: 0.7

Q: Which self-cleavage does the source give for U14A G34U here?
A: 1.47

Q: With U14A G27A as the variant, how does the self-cleavage read?
A: 0.39

Q: Which self-cleavage does the source give for U14A G27C here?
A: 0.196

Q: Which self-cleavage does the source give for U14A G27U here?
A: 0.192

Q: For G13U U52G, which self-cleavage is on record?
A: 0.623

Q: For G15C G42U, which self-cleavage is on record?
A: 0.19

Q: With U14A G19A as the variant, how does the self-cleavage read?
A: 0.756

Q: For U14G G56C, which self-cleavage is on record?
A: 0.164

Q: Which self-cleavage does the source give for U14A A41G here?
A: 0.867

Q: Which self-cleavage does the source give for U14G A26U here?
A: 0.549

Q: Which self-cleavage does the source give for U14G A26C here?
A: 0.522

Q: For U14A U63A, which self-cleavage is on record?
A: 0.162

Q: For U14G A22G, which self-cleavage is on record?
A: 0.798

Q: For U14G A22U, which self-cleavage is on record?
A: 0.683

Q: With G15A G40U as the variant, how does the self-cleavage read?
A: 0.111

Q: Which self-cleavage does the source give for U14C G69A here?
A: 0.341

Q: For U14A G32U, which self-cleavage is on record?
A: 0.108

Q: For U14A G32A, which self-cleavage is on record?
A: 0.106

Q: Which self-cleavage does the source give for U14C C65U here?
A: 0.295

Q: Which self-cleavage does the source give for G15A U20G here?
A: 0.85

Q: With G15A G32U as the variant, how does the self-cleavage read?
A: 0.0825

Q: With G15A G32A as the variant, how does the self-cleavage read?
A: 0.145

Q: With U14C A64U as the variant, how does the self-cleavage read?
A: 0.199

Q: With U14C A64C as the variant, how does the self-cleavage read?
A: 0.257

Q: With U14C C37G as the variant, how does the self-cleavage read?
A: 0.319

Q: With U14C C37A as the variant, how does the self-cleavage read?
A: 0.245

Q: Which self-cleavage does the source give for G15U A24C here?
A: 1.08

Q: With G15U A24G as the variant, how does the self-cleavage read?
A: 1.12

Q: Which self-cleavage does the source give for G13U G57U here?
A: 0.202

Q: With G13U G57C as the variant, how does the self-cleavage read?
A: 0.173

Q: For G13U G25C, which self-cleavage is on record?
A: 0.274

Q: Which self-cleavage does the source give for G15C A59C here?
A: 0.146

Q: For G15C A59U, which self-cleavage is on record?
A: 0.224

Q: For G13U G56C, which self-cleavage is on record?
A: 0.12

Q: Which self-cleavage does the source give for G15C A43U here?
A: 0.126

Q: For U14C C38G, which self-cleavage is on record?
A: 0.246

Q: With U14G C65U as the variant, how does the self-cleavage read?
A: 0.316

Q: With U14G A39U as the variant, how does the self-cleavage read?
A: 0.285

Q: For G15C U60A, which self-cleavage is on record?
A: 0.709

Q: For U14C C48A, which self-cleavage is on record?
A: 0.256

Q: With U14C C48U as the variant, how does the self-cleavage read?
A: 0.117

Q: For U14A G57U, which self-cleavage is on record?
A: 0.195

Q: With U14A G57C as the variant, how does the self-cleavage read?
A: 0.132

Q: Which self-cleavage does the source give for U14C G51A here?
A: 0.854

Q: Which self-cleavage does the source give for U14C G51U here?
A: 1.07

Q: For U14G U62C, which self-cleavage is on record?
A: 0.213

Q: Which self-cleavage does the source give for G15C U53A here?
A: 0.792

Q: Which self-cleavage does the source give for G13U G42C here?
A: 0.227

Q: With G15C A22U as the variant, how does the self-cleavage read?
A: 1.01

Q: For G15A A49U, which self-cleavage is on record?
A: 0.149

Q: With G15A A49G as the variant, how does the self-cleavage read?
A: 0.527

Q: For G15A C37U, which self-cleavage is on record?
A: 0.699

Q: Which self-cleavage does the source give for G15A C37G here?
A: 0.312

Q: For G15A C37A, which self-cleavage is on record?
A: 0.388

Q: Which self-cleavage does the source give for G13U G68U here?
A: 0.243

Q: Which self-cleavage does the source give for U14G U58A here?
A: 0.753

Q: With U14A A43U as the variant, how does the self-cleavage read?
A: 0.0759

Q: Which self-cleavage does the source give for G15A A47C here?
A: 0.302

Q: For U14A A39G, which self-cleavage is on record?
A: 0.345

Q: For G15C C16U, which self-cleavage is on record?
A: 1.29

Q: With U14G G15C as the variant, how does the self-cleavage read?
A: 0.864

Q: For U14C U62G, which self-cleavage is on record?
A: 0.218

Q: For U14C U62A, which self-cleavage is on record?
A: 0.142

Q: With U14C U62C as the variant, how does the self-cleavage read?
A: 0.0439

Q: Which self-cleavage does the source give for U14A U53G here?
A: 0.899

Q: For U14A U53C, which self-cleavage is on record?
A: 1.07

Q: With G15A A24C as the variant, how does the self-cleavage read?
A: 0.899

Q: Which self-cleavage does the source give for G15A A24G here?
A: 0.963

Q: With G15A G69U as the variant, how does the self-cleavage read?
A: 0.217

Q: For G15A G69A, which self-cleavage is on record?
A: 0.362

Q: With U14A G69U as the variant, how does the self-cleavage read?
A: 0.205

Q: For U14A G69C, which self-cleavage is on record?
A: 0.337
